Experimental data taken from patent publication US20040081647.

Target: recombinant human TNFα (RDI) (UniProt P01375)
Sequence (P01375 77-233): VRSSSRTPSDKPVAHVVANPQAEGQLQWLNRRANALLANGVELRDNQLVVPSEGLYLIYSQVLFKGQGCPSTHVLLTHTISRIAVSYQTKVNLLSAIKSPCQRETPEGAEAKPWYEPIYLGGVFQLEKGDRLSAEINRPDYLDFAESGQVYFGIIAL

MMP12, sequence (P39900 106-470): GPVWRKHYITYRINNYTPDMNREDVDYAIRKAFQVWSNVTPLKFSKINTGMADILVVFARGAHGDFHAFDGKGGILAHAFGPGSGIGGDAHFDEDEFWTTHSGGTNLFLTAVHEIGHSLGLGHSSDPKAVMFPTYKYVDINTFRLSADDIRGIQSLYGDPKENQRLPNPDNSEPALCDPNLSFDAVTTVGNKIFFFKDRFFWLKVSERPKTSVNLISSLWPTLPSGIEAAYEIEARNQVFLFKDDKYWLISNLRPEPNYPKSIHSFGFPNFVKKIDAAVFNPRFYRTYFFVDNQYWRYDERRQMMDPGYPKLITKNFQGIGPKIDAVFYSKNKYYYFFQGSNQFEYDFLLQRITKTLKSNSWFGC
Plasmin, sequence (P00747 20-580): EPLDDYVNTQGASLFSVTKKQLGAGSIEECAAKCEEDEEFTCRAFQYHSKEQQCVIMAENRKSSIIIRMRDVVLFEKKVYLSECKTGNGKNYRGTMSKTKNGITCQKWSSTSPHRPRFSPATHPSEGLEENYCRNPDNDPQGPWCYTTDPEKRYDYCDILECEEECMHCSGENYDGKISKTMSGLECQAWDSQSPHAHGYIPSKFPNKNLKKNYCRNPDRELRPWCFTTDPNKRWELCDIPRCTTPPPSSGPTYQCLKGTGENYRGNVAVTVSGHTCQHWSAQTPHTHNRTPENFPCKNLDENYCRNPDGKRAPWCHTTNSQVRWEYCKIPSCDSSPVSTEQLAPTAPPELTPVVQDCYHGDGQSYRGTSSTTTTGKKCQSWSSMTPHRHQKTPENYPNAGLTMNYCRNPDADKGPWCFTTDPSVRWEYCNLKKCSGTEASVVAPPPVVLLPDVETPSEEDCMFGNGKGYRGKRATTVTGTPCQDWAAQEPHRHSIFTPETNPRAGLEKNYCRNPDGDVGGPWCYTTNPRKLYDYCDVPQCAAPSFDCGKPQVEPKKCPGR
Plasmin, sequence (P00747 581-810): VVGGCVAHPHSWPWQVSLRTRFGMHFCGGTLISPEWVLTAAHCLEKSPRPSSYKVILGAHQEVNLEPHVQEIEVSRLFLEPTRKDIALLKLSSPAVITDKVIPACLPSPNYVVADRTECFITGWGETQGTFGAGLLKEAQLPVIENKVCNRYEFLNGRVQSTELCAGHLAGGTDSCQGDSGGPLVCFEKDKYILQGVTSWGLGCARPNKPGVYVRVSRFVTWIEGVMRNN

Substance	log reduction in TNFα activity (L929 cytotoxicity bioassay after overnight digestion)	inactivation of TNFα (L929 cytotoxicity bioassay after overnight digestion)
ELASTASE	ELASTASE (1.45)	
MT1-MMP	MT1-MMP (0.86)	
Tryptase	Tryptase (0.62)	
Kallikrein5		Kallikrein5 (under: Proteases that did not inactivate TNF)
Enterokinase		Enterokinase (under: Proteases that did not inactivate TNF)
HIV Protease		HIV Protease (under: Proteases that did not inactivate TNF)
Furin		Furin (under: Proteases that did not inactivate TNF)
TACE		TACE (under: Proteases that did not inactivate TNF)
MT5-MMP		MT5-MMP (under: Proteases that did not inactivate TNF)
TRYPSIN	TRYPSIN (2.3)	
Urokinase		Urokinase (under: Proteases that did not inactivate TNF)
MMP3		MMP3 (under: Proteases that did not inactivate TNF)
ADAM10		ADAM10 (under: Proteases that did not inactivate TNF)
MMP12	MMP12 (0.65)	
Plasmin		Plasmin (under: Proteases that did not inactivate TNF)
CHYMOTRYPSIN	CHYMOTRYPSIN (2.74)	
